This is an account of results in the RNAGym collection of RNA variant scans (doi:10.1093/molbev/msab373).

B1: Azoarcus group I ribozyme (parent)
chain: GUGCCUUGCGCCGGGAAACCACGCAAGGGAUGGUGUCAAAUUCGGCGAAACCUAAGCGCCCGCCCGGGCGUAUGGCAACGCCGAGCCAAGCUUCGGCGCCUGCGCCGAUGAAGGUGUAGAGACUAGACGGCACCCACCUAAGGCAAACGCUAUGGUGAAGGCAUAGUCCAGGGAGUGGCGAAAGUCACACAAACCGG

The data set covers variants of B1. Put plainly: reverse-splicing fitness (ratio to wild type); higher = more active; in vitro selection; Mg2+ level not given. The essentials: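 An in vitro group I ribozyme library with randomized positions was T7-transcribed and gel-purified. In triplicate, 10 pmol RNA in EPPS pH 7.5 was reacted with 50 pmoles of a 30-nt RNA substrate for 1 h at 37 °C across several added MgCl2 levels (1–48 mM), then stopped with EDTA. Products were reverse transcribed from a substrate-complementary primer, PCR-amplified and sequenced (HiSeq 4000). Fitness is a variant's read proportion after selection over that before, normalised to wild type.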
For the variant C82A A111G A120U A145U C150G C169G, the reverse-splicing fitness amounted to 0.00311.

Take C82A A111G A120U A145U C150G C169A: the reverse-splicing fitness is 0.00373.

C82A A111G A120U A145U C150G C169U: the reverse-splicing fitness turned out to be 0.00268.

For C82A A111G A145C C169G U176A, the reverse-splicing fitness turned out to be 0.0278.

Turning to C82A A111G A145C C169G U176G, the reverse-splicing fitness was determined as 0.00487.

For C82A A111G A145C C169G U176C, the reverse-splicing fitness was 0.0155.

Consider C82A A111G A120U A145G C150A U176C, for which the reverse-splicing fitness came out at 0.00808.

Turning to C82A A111G A120U A145G C150A U176G, the reverse-splicing fitness was 0.00419.

As for C82A A111G A120U A145G C150A U176A, the reverse-splicing fitness came to 0.00782.

For the variant C82A A111G A120U A145U C150G C169A U176G, the reverse-splicing fitness stood at 0.00276.

Take C82A A111G A120U A145U C150G C169A U176C: the reverse-splicing fitness stood at 0.00338.

In the case of C82A A111G A120U A145U C150G C169A U176A, the reverse-splicing fitness turned out to be 0.0039.

Consider C82A A111G A145C C150G C169U U176A, for which the reverse-splicing fitness is 0.00799.

In the case of C82A A111G A145C C150G C169U U176C, the reverse-splicing fitness came out at 0.0106.

As for C82A A111G A145C C150G C169U U176G, the reverse-splicing fitness amounted to 0.00568.

As for C82A A111G A120U A145U U176G, the reverse-splicing fitness stood at 0.00433.

For C82A A111G A120U A145U U176A, the reverse-splicing fitness was 0.00893.

Turning to C82A A111G A120U A145U U176C, the reverse-splicing fitness was found to be 0.0146.

C82A A111G A145C C150A C169A U176A: the reverse-splicing fitness stood at 0.0122.

For C82A A111G A145C C150A C169A U176G, the reverse-splicing fitness stood at 0.00644.

C82A A111G A145C C150A C169A U176C: the reverse-splicing fitness came out at 0.00723.

With C82A A111G A120U C150U C169A, the reverse-splicing fitness turned out to be 0.00487.

For the variant C82A A111G A120U C150U C169G, the reverse-splicing fitness was 0.00566.

With C82A A111G A120U C150U C169U, the reverse-splicing fitness was found to be 0.0051.

For the variant C82A A111G A145G C150G C169G U176A, the reverse-splicing fitness is 0.0112.

Take C82A A111G A145G C150G C169G U176G: the reverse-splicing fitness was found to be 0.00597.

As to C82A A111G A145G C150G C169G U176C, the reverse-splicing fitness is 0.011.

Take C82A A111G A120U A145U C150U C169G U176G: the reverse-splicing fitness is 0.00208.

For the variant C82A A111G A120U A145U C150U C169G U176C, the reverse-splicing fitness stood at 0.00298.

On to C82A A111G A120U A145U C150U C169G U176A, for which the reverse-splicing fitness was 0.00294.

With C82A A111G A145G C150A C169G, the reverse-splicing fitness is 0.00998.

As to C82A A111G A145G C150A C169U, the reverse-splicing fitness was found to be 0.0109.

On to C82A A111G A145G C150A C169A, for which the reverse-splicing fitness was found to be 0.0118.

For C82A A111G A145C C150A U176C, the reverse-splicing fitness was 0.0184.

With C82A A111G A145C C150A U176A, the reverse-splicing fitness came to 0.015.

Take C82A A111G A145C C150A U176G: the reverse-splicing fitness turned out to be 0.00802.

Take C82A A111G A120U A145G: the reverse-splicing fitness turned out to be 0.0318.

As for C82A A111G A120U A145U, the reverse-splicing fitness was 0.0342.

For C82A A111G A145C C169U U176G, the reverse-splicing fitness was found to be 0.00571.

In the case of C82A A111G A145C C169U U176C, the reverse-splicing fitness was 0.0113.

As for C82A A111G A145C C169U U176A, the reverse-splicing fitness was 0.013.

C82A A111G A145G C150A U176C: the reverse-splicing fitness is 0.0453.

Consider C82A A111G A145G C150A U176A, for which the reverse-splicing fitness was 0.0293.

On to C82A A111G A145G C150A U176G, for which the reverse-splicing fitness came out at 0.0122.

On to C82A A111G A120U A145C C169G U176A, for which the reverse-splicing fitness amounted to 0.00249.

On to C82A A111G A120U A145C C169G U176G, for which the reverse-splicing fitness is 0.00175.

On to C82A A111G A120U A145C C169G U176C, for which the reverse-splicing fitness is 0.00189.

Regarding C82A A111G A120U A145C C169U U176A, the reverse-splicing fitness was 0.00302.

Regarding C82A A111G A120U A145C C169U U176G, the reverse-splicing fitness is 0.00153.

For C82A A111G A120U A145C C169U U176C, the reverse-splicing fitness was found to be 0.00282.

As for C82A A111G A145G C150U C169U U176A, the reverse-splicing fitness came to 0.0138.

For C82A A111G A145G C150U C169U U176G, the reverse-splicing fitness was determined as 0.00655.

For C82A A111G A145G C150U C169U U176C, the reverse-splicing fitness came to 0.0135.

In the case of C82A A111G A120U C150A C169G U176C, the reverse-splicing fitness was 0.00412.

Consider C82A A111G A120U C150A C169G U176A, for which the reverse-splicing fitness was found to be 0.00908.

With C82A A111G A120U C150A C169G U176G, the reverse-splicing fitness was 0.00222.

For C82A A111G A120U C169G U176G, the reverse-splicing fitness was found to be 0.00181.

Regarding C82A A111G A120U C169G U176A, the reverse-splicing fitness was 0.00294.

Regarding C82A A111G A120U C169G U176C, the reverse-splicing fitness came to 0.00341.

In the case of C82A A111G A145C C150U C169U U176C, the reverse-splicing fitness was 0.00981.

As to C82A A111G A145C C150U C169U U176A, the reverse-splicing fitness was found to be 0.0126.

Take C82A A111G A145C C150U C169U U176G: the reverse-splicing fitness turned out to be 0.0052.

As for C82A A111G A120U A145U C150G, the reverse-splicing fitness turned out to be 0.00746.

As for C82A A111G A120U A145U C150U, the reverse-splicing fitness was determined as 0.0232.

Turning to C82A A111G A120U A145U C150A, the reverse-splicing fitness was determined as 0.00648.

As for C82A A111G A120U A145G C169G U176A, the reverse-splicing fitness stood at 0.00375.

Consider C82A A111G A120U A145G C169G U176G, for which the reverse-splicing fitness was 0.00191.

Regarding C82A A111G A120U A145G C169G U176C, the reverse-splicing fitness turned out to be 0.00421.

C82A A111G A120U C150G C169G U176C: the reverse-splicing fitness turned out to be 0.0034.

On to C82A A111G A120U C150G C169G U176A, for which the reverse-splicing fitness is 0.00567.

For C82A A111G A120U C150G C169G U176G, the reverse-splicing fitness stood at 0.00237.

As for C82A A111G A120U C150G C169A U176G, the reverse-splicing fitness is 0.0031.

On to C82A A111G A120U C150G C169A U176C, for which the reverse-splicing fitness was 0.00609.

Regarding C82A A111G A120U C150G C169A U176A, the reverse-splicing fitness is 0.00738.

Take C82A A111G A145U C150A C169A: the reverse-splicing fitness was determined as 0.0101.

In the case of C82A A111G A120U A145G C150U, the reverse-splicing fitness came to 0.0257.

In the case of C82A A111G A120U A145G C150A, the reverse-splicing fitness worked out at 0.00991.

Regarding C82A A111G A120U A145G C150G, the reverse-splicing fitness was determined as 0.00855.

Regarding C82A A111G A145C C169A, the reverse-splicing fitness is 0.0076.

C82A A111G A145C C169U: the reverse-splicing fitness came out at 0.0119.

For C82A A111G A145C C169G, the reverse-splicing fitness worked out at 0.00994.

With C82A A111G A145G C150A C169A U176G, the reverse-splicing fitness turned out to be 0.00749.

C82A A111G A145G C150A C169A U176A: the reverse-splicing fitness stood at 0.0216.
